{
  "source": "patent US20230257435A1",
  "about": "“Wound Healing Composition and Uses Thereof” (AGENCY FOR SCIENCE, TECHNOLOGY AND RESEARCH, priority 2020, published 2023)",
  "molecules": {"B1": {"name": "sAgrin: C-terminus recombinant Agrin fragment containing 8 amino acid 'Z8' insert and LG3 domain (SEQ ID NO: 7), His-tagged, expressed in E. coli (protein)", "chain": "DTLAFDGRTFVEYLNAVTESELANEIPVEKALQSNHFELSLRTEATQGLVLWSGKATERADYVALAIVDGHLQLSYNLGSQPVVLRSTVPVNTNRWLRVVAHREQREGSLQVGNEAPVTGSSPLGATQLDTDGALWLGGLPELPVGPALPKAYGTGFVGCLRDVVVGRHPLHLLEDAVTKPELRPCPTP", "modifications": "His tag"}},
  "key": {"[1]": {"tested_on": "keratinocytes and dermal fibroblasts", "experiment": "In vitro scratch wound-healing assay", "assay_type": "cell-based, human and mouse", "method": "A confluent monolayer of control and Agrin depleted cells in a 6-well plate was subjected to a unidirectional scratch using a 20 μl pipette tip. This was followed by washing with 1×PBS at room temperature and incubation in complete culture media at 37° C. and 5% CO2 with or without sAgrin used as indicated. Phase contrast images of the wound area were taken periodically at the indicated time-points. For some wound-healing migration assays, keratinocytes were cultured on either soft or stiff substrates within a stencil barrier (Nalge Nunc., Inc) for 18 h. Upon removal of the barrier, the cells were allowed to migrate and imaged using an Axiovert 200 inverted microscope at indicated time-points."}, "[2]": {"tested_on": "MMP12", "experiment": "MMP12 activity assay (gelatin and casein zymography)", "assay_type": "cell-based, human", "settings": "Agrin silenced keratinocytes, increasing dose of sAgrin 24 h", "method": "MMP12 activity were monitored via Gelatin and Casein zymography as per previously published protocols. Briefly, control or Agrin depleted HaCaT cells were grown till 80-90% confluency in media without FBS. Supernatants collected from each culture dish were spun down at 10,000 rpm for 5 min and concentrated using Amicon ultra columns. Twenty microliter of medium was mixed with 2×SDS loading buffer and loaded on 10% gelatin or casein gel. The gels were washed with incubation buffer and subsequently stained with Coomassie Brilliant Blue for 1 h. The gels were de-stained for 30 min before imaging using a Chemidoc imager."}, "[3]": {"tested_on": "mouse skin punch wounds", "experiment": "Punch-biopsy wound healing model, non-splinted", "assay_type": "in vivo", "method": "Six to eight to week old female experimental ICR (nomenclature: IcrTac:ICR) mice purchased from InVivos were used for punch-biopsy wound healing in vivo assays. In the ex-vivo mouse skin explant assay, random ratios of male and female new born ICR mouse pups were used. Wherever possible, the experiments were performed taking into consideration an ethical and reductionist approach of animal usage. Animal studies were not performed in a blinded fashion. The animals were randomly assigned to different experimental groups. The number of animals used for each experiment is indicated in the legend as n=x mice per group. All animal experiments performed were done in accordance with experimental protocols reviewed by the Biological Resource Center (BRC), Agency for Science Technology and Research (A*STAR) under strict compliance to the Institutional Animal Care and Use Committee (IACUC) guidelines for ethical use of animal models in biological research.\nThe mice were housed under standard conditions of 21° C. and a 12 h light-dark cycle with free access to food. Subsequently, the mice were intraperitoneally (i.p.) anesthezised using Ketamine 100 mg/kg and Xylazin 10 mg/kg diluted in […] of saline solution. The fur was shaved from the base of the neck towards the back on the entire shoulder region. The skin was wiped with an alcohol swab and 10% povidone-iodine (Betadine) antiseptic solution. Circular symmetrical 4 mm wounds were inflicted on either side of the midline in the shoulder region using a sterile 4 mm punch biopsy needle (Integra Miltex, Integra York, P.A., Inc.). The wound skin was carefully removed using a scalpel and a pair of scissors to generate a full-thickness wound that were left open for topical administrations during the analysed time periods. For splinted wound healing models, a 10 mm transparent donut shaped nylon sheet (Grace Bio-Laboratories, Bend, Oreg.) was placed around the 4 mm wound. The splint was placed with the wound at the center, glued to the skin by adhesive (Krazy Glue®; Elmer's Inc.), and covered by Tegaderm dressing. The wounds were treated with different formulations based on either petroleum jelly (Vaseline), a thermoresponsive hydrogel (Pluronic F127-Sigma) or a commercially available skin ointment (Aquaphore-Beiersdorf, Inc.). For Vaseline based ointment cream preparation, 10 mg per cm^2 vaseline ointment was mixed with filtered PBS solutions containing the indicated amounts of Agrin (100 μg, 200 μg or 500 μg) and 100 μg BSA (w/w) were used and applied topically every two days. For siRNA mediated knockdown experiments, 75 nM of indicated siRNAs were incubated with lipofectamine in PBS. Subsequently, a 1:1 mixture of PBS (containing the siRNAs): Aquaphore was applied topically on the wound region every two days. A topical formulation comprising of 20% (w/w) Pluronic F127 (Sigma) was used to dissolve in sterile and 0.22μ filtered solution containing a final concentration of 200 μg/ml sAgrin or BSA. This mixture was dissolved overnight at 4° C. to ensure that liquid phase is achieved. The mixture forms a homogenous gel at temperatures above ˜20° C. and was dispersed topically to cover the wound. Wound closure was assessed using a Vernier caliper every alternate day. For both models, the animals were caged individually throughout the observed time-points of healing at the institutional animal facility. All wound healing animal experiments performed were done in accordance with experimental protocols reviewed by the Biological Resource Center (BRC), Agency for Science Technology and Research (A*STAR) under strict compliance to the Institutional Animal Care and Use Committee (IACUC) guidelines for ethical use of animal models in biological research.\nHuman skin equivalents and mice skin tissues were harvested, embedded, and subjected to routine histology using Hematoxylin and Eosin. For immunostaining, the tissues were fixed for 24 h in 10% neutral buffered formalin solution. […]"}},
  "data": [
    {"molecule": "B1", "values": [
      {"measurement": "scratch wound-responsive migration velocities (rescue of Agrin knockdown)", "setting": "[1]; Agrin knockdown fibroblasts and keratinocytes, 10 μg/ml sAgrin 18 h", "value": "in part, rescued"},
      {"measurement": "migration of MMP 1 and 10 knockdown keratinocytes", "setting": "[1]; HaCaT, 10 μg/ml sAgrin 18 h", "value": "not restored by sAgrin treatment"},
      {"measurement": "migratory rates with increasing concentrations of sAgrin", "setting": "[1]; HaCaT/mouse keratinocytes", "value": "accelerated migratory rates"},
      {"measurement": "migration of MMP12 depleted keratinocytes", "setting": "[1]; human and mouse keratinocytes, 10 μg/ml sAgrin 18 h", "value": "failed to stimulate migration"},
      {"measurement": "K17 expressing leader keratinocyte migration in vitro", "setting": "[1]; sAgrin 10 μg/ml, 4 h", "value": "enhanced the K17 expressing leader keratinocyte migration"},
      {"measurement": "MMP12 gelatin and casein degradation catalytic activity", "setting": "[2]", "value": "restored by sAgrin supplementation in a dose-dependent pattern"},
      {"measurement": "migratory epithelial tongue from wound edges", "setting": "[3]; day 2", "value": "significant extension of the migratory epithelial tongue"},
      {"measurement": "K17 outgrowth, MMP12 expression and pMLC activation", "setting": "[3]; day 2, wound edges and beds", "value": "robust K17 expressing keratinocyte outgrowth, MMP12 expression and pMLC activation"},
      {"measurement": "angiogenesis (blood vessel number and diameter)", "setting": "[3]; day 6", "value": "steady enhancement in angiogenesis with an increased number of blood vessels and their respective diameters"},
      {"measurement": "Ki67+ve proliferating cells", "setting": "[3]; day 7 post-injury", "value": "enhancement of Ki67+ve proliferating cells"},
      {"measurement": "rates of wound healing, Pluronic F-127 hydrogel", "setting": "[3]; sAgrin 200 μg vs control hydrogel", "value": "significantly boosted the rates of wound healing in vivo"},
      {"measurement": "healing rates of punch wounds, Vaseline ointment", "setting": "[3]; sAgrin 100, 200 or 500 μg in Vaseline vs BSA", "value": "significantly accelerated the healing rates of mice punch wounds in a dose-dependent fashion"}
    ]}
  ]
}
